The results in this text go back to US20230416346.

For data set [1], the target named is recombinant human full-length SPARC (R&D Systems) (UniProt P09486).
In data set [2] the target is human SPARC secreted by human mammary fibroblasts (HMFs) (UniProt P09486).
Chain of human SPARC secreted by human mammary fibroblasts (HMFs) (P09486 18-303): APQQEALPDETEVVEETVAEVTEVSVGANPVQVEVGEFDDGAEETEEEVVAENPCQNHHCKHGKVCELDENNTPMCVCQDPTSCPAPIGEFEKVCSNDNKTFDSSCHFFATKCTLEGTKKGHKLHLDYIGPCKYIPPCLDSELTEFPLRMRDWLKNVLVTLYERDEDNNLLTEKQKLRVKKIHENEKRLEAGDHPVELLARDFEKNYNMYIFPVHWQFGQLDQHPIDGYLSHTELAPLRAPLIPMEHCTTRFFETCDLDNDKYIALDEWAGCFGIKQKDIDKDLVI

Chain of recombinant human full-length SPARC (R&D Systems) (P09486 18-303): as above
Chain of fully-mature cath-D (34+14-kDa) (recombinant human cathepsin D) (chain, as listed by the source): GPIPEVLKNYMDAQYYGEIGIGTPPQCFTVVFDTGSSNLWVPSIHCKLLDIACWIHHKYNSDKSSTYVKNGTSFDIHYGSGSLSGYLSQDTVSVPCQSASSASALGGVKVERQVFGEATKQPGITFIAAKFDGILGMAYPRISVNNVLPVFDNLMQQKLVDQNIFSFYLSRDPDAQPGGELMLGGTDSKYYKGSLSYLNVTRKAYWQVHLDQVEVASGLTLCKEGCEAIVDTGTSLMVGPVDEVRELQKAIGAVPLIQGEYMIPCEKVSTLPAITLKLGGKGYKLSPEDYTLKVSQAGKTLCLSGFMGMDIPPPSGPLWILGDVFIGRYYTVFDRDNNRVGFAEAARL
Chain of human cath-D secreted by TNBC cells (MDA-MB-231) (chain, as listed by the source): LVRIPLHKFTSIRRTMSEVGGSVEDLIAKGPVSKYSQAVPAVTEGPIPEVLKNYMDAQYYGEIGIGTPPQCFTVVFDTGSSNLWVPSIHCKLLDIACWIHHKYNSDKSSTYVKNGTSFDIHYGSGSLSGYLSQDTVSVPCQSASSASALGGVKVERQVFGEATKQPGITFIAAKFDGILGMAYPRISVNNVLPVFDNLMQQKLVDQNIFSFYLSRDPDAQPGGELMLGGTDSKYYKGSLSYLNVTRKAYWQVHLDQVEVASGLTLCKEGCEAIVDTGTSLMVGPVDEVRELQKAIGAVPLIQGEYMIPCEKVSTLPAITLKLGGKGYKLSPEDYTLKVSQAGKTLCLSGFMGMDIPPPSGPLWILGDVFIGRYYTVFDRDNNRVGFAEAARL

For the substance “auto-activated 51-kDa pseudo-cath-D (recombinant human cathepsin D)”, in data set [1], the ATOMS ratio (Pseudo-cathD + SPARC - pepst./Pseudo-cath-D + SPARC + pepst), peptide DQHPIDGYLSHTELAPLR [239-256], trypsin was 8.4; the ATOMS ratio (Pseudo-cathD + SPARC - pepst./Pseudo-cath-D + SPARC + pepst), peptide EAGDHPVELLAR [207-218], trypsin is 11.3; the ATOMS ratio (Pseudo-cathD + SPARC - pepst./Pseudo-cath-D + SPARC + pepst), peptide FGQLDQHPIDGYLSHTELAPLR [235-256], trypsin was found to be 10.6; the ATOMS ratio (Pseudo-cathD + SPARC - pepst./Pseudo-cath-D + SPARC + pepst), peptide GQLDQHPIDGYLSHTELAPLR [236-256], trypsin was 2. Moreover, in data set [1], the ATOMS ratio (Pseudo-cathD + SPARC - pepst./Pseudo-cath-D + SPARC + pepst), peptide PLIPMEHCTTR [258-268], trypsin was determined as 22.5; the ATOMS ratio (Pseudo-cathD + SPARC - pepst./Pseudo-cath-D + SPARC + pepst), peptide QLDQHPIDGYLSHTELAPLR [237-256], trypsin is 3.5; the ATOMS ratio (Pseudo-cathD + SPARC - pepst./Pseudo-cath-D + SPARC + pepst), peptide SHTELAPLR [248-256], trypsin was 2.7; the ATOMS ratio (Pseudo-cathD + SPARC - pepst./Pseudo-cath-D + SPARC + pepst), peptide VTLYERDEDNNLLTEK [176-191], trypsin worked out at 12.1. Besides, in data set [1], the ATOMS ratio (Pseudo-cathD + SPARC - pepst./Pseudo-cath-D + SPARC + pepst), peptide YERDEDNNLLTEK [179-191], trypsin was found to be 13.7; the ATOMS ratio (Pseudo-cathD + SPARC - pepst./Pseudo-cath-D + SPARC + pepst), peptide YERDEDNNLLTEKQK [179-193], trypsin is 21.1; the ATOMS ratio (Pseudo-cathD + SPARC - pepst./Pseudo-cath-D + SPARC + pepst), peptide YLSHTELAPLR [246-256], trypsin stood at 18.8; the “SPARC cleavage at pH 5.9, ATOMS and silver staining” value is “SPARC was hydrolysed by the 51-kDa cath-D form exclusively in its extracellular Ca2+ binding domain, releasing five main SPARC fragments (34-, 27, 16, 9-, and 6-kDa) at pH 5.9”. In addition, in data set [1], the “SPARC cleavage, pH dependence (6.8 to 5.5), SDS-PAGE and immunoblot” value is “experiments in which pH was gradually reduced from 6.8 to 5.5 showed progressive limited proteolysis of SPARC at lower pH”; the “SPARC cleavage, time course at pH 5.9, SDS-PAGE and immunoblot” value is “At pH 5.9, SPARC was hydrolysed by cath-D in a time-dependent manner”.
On to “fully-mature cath-D (34+14-kDa) (recombinant human cathepsin D)”, for which, in data set [1], the ATOMS ratio (Mature cath-D + SPARC - pepst./Mature cath-D + SPARC + pepst.), peptide DQHPIDGYLSHTELAPLR [239-256], trypsin amounted to 8.1; the ATOMS ratio (Mature cath-D + SPARC - pepst./Mature cath-D + SPARC + pepst.), peptide DWLKNVLVTLYER [169-181], trypsin is 0.5; the ATOMS ratio (Mature cath-D + SPARC - pepst./Mature cath-D + SPARC + pepst.), peptide EAGDHPVELLAR [207-218], trypsin amounted to 19.3; the ATOMS ratio (Mature cath-D + SPARC - pepst./Mature cath-D + SPARC + pepst.), peptide FGQLDQHPIDGYLSHTELAPLR [235-256], trypsin turned out to be 5.9. Also, in data set [1], the ATOMS ratio (Mature cath-D + SPARC - pepst./Mature cath-D + SPARC + pepst.), peptide GQLDQHPIDGYLSHTELAPLR [236-256], trypsin stood at 2.3; the ATOMS ratio (Mature cath-D + SPARC - pepst./Mature cath-D + SPARC + pepst.), peptide LDSELTEFPLR [156-166], trypsin is 0.4; the ATOMS ratio (Mature cath-D + SPARC - pepst./Mature cath-D + SPARC + pepst.), peptide LSHTELAPLR [247-256], trypsin was 2.4; the ATOMS ratio (Mature cath-D + SPARC - pepst./Mature cath-D + SPARC + pepst.), peptide PLIPMEHCTTR [258-268], trypsin stood at 4.3. Moreover, in data set [1], the ATOMS ratio (Mature cath-D + SPARC - pepst./Mature cath-D + SPARC + pepst.), peptide PVHWQFGQLDQHPIDGYLSHTELAPLR [230-256], trypsin worked out at 5.6; the ATOMS ratio (Mature cath-D + SPARC - pepst./Mature cath-D + SPARC + pepst.), peptide QLDQHPIDGYLSHTELAPLR [237-256], trypsin amounted to 2.2; the ATOMS ratio (Mature cath-D + SPARC - pepst./Mature cath-D + SPARC + pepst.), peptide SHTELAPLR [248-256], trypsin stood at 1.6; the ATOMS ratio (Mature cath-D + SPARC - pepst./Mature cath-D + SPARC + pepst.), peptide VTLYERDEDNNLLTEK [176-191], trypsin was 14.3. Also, in data set [1], the ATOMS ratio (Mature cath-D + SPARC - pepst./Mature cath-D + SPARC + pepst.), peptide WQFGQLDQHPIDGYLSHTELAPLR [233-256], trypsin came out at 3.1; the ATOMS ratio (Mature cath-D + SPARC - pepst./Mature cath-D + SPARC + pepst.), peptide YERDEDNNLLTEK [179-191], trypsin amounted to 11.8; the ATOMS ratio (Mature cath-D + SPARC - pepst./Mature cath-D + SPARC + pepst.), peptide YERDEDNNLLTEKQK [179-193], trypsin was 16.8; the ATOMS ratio (Mature cath-D + SPARC - pepst./Mature cath-D + SPARC + pepst.), peptide YLSHTELAPLR [246-256], trypsin stood at 5.7. For the same substance, the “SPARC cleavage at pH 5.9, ATOMS and silver staining” value in data set [1] is on record as “We detected SPARC cleavage fragments of similar size also after incubation with the fully mature 34+14-kDa cath-D form at pH 5.9”.
Turning to “human cath-D secreted by TNBC cells (MDA-MB-231)”, in data set [2], the “SPARC cleavage in MDA-MB-231/HMF conditioned medium at pH 5.5, immunoblot” value is on record as “SPARC was hydrolysed in a time-dependent manner in the conditioned medium at pH 5.5”; the “SPARC cleavage in MDA-MB-231/HMF conditioned medium at pH 6.8 to 5.5, immunoblot” value is on record as “in the MDA-MB-231/HMF conditioned medium, SPARC was significantly degraded up to pH 6.2”; the TAILS ratio (CM - pepst./CM + pepst.), peptide DQHPIDGYLSHTELAPLR [239-256], trypsin came out at 7.6; the TAILS ratio (CM - pepst./CM + pepst.), peptide EAGDHPVELLAR [207-218], trypsin is 3.4. Also, in data set [2], the TAILS ratio (CM - pepst./CM + pepst.), peptide GQLDQHPIDGYLSHTELAPLR [236-256], trypsin is 12.4; the TAILS ratio (CM - pepst./CM + pepst.), peptide PLIPMEHCTTR [258-268], trypsin turned out to be 5.9; the TAILS ratio (CM - pepst./CM + pepst.), peptide QLDQHPIDGYLSHTELAPLR [237-256], trypsin is 15.1; the TAILS ratio (CM - pepst./CM + pepst.), peptide YLSHTELAPLR [246-256], trypsin was 4.4.
